In patent US20150086555A1 one finds Trimeric HA Binding: RLU data, which are given here for 11 molecules.

Holding throughout (conditions): remark: other sources report otherwise
For assay [1], the target named is recombinant soluble homotrimeric HA of A/Egypt/3300-NAMRU3/08 (H5N1) (Influenza A virus A/Egypt/3300-NAMRU3/2008(H5N1)). Description: HA microarray, BCC supernatant.
The target of assay [2] is recombinant homotrimeric HA A/duck/Yangzhou/02/05 H8N4 (Influenza A virus A/duck/Yangzhou/02/2005(H8N4)). Kind of assay: protein microarray, purified IgG, trimeric HA.
For assay [3], the target named is recombinant homotrimeric HA A/swine/Ontario/01911-2/99 H4N6 (Influenza A virus A/Swine/Ontario/01911-2/99 (H4N6)). Kind of assay: protein microarray, purified IgG, trimeric HA.
Assay [4] addresses recombinant soluble homotrimeric HA, A/chicken/Vietnam/NCVD-016/08 H5N1 (Influenza A virus A/chicken/Vietnam/NCVD-016/2008(H5N1)). Description: microarray, transfection SN IgG, trimeric HA.
The target of assay [5] is recombinant soluble homotrimeric HA, A/South Carolina/1/18 H1N1 (Influenza A virus A/South Carolina/1/18 (H1N1)). Kind of assay: microarray, transfection SN IgG, trimeric HA.
Assay [6] has as its target recombinant soluble homotrimeric HA, A/Anhui/1/05 H5N1 (Influenza A virus A/Anhui/1/2005(H5N1)). Description: microarray, transfection SN IgG, trimeric HA.
Assay [7] addresses recombinant soluble homotrimeric HA, A/Indonesia/5/05 H5N1 (Influenza A virus A/Indonesia/5/2005(H5N1)). Description: microarray, transfection SN IgG, trimeric HA.
The target of assay [8] is recombinant soluble homotrimeric HA, A/Egypt/3300-NAMRU3/08 H5N1 (Influenza A virus A/Egypt/3300-NAMRU3/2008(H5N1)). Kind of assay: microarray, transfection SN IgG, trimeric HA.
Assay [9] has as its target recombinant soluble homotrimeric HA, A/California/4/09 H1N1 (Influenza A virus A/California/04/2009(H1N1)). Description: microarray, transfection SN IgG, trimeric HA.
For assay [10], the target named is recombinant soluble homotrimeric HA, A/Solomon Islands/3/06 H1N1 (Influenza A virus A/Solomon Islands/3/2006(H1N1)). Kind of assay: microarray, transfection SN IgG, trimeric HA.
For assay [11], the target named is recombinant soluble homotrimeric HA, A/duck/Yangzhou/02/05 H8N4 (Influenza A virus A/duck/Yangzhou/02/2005(H8N4)). Kind of assay: microarray, transfection SN IgG, trimeric HA.
In assay [12] the target is recombinant soluble homotrimeric HA, A/Japan/305/57 H2N2 (Influenza A virus A/Japan/305/1957(H2N2)). Kind of assay: microarray, transfection SN IgG, trimeric HA.
Assay [13] concerns the target recombinant soluble homotrimeric HA, A/northern shoveler/California/HKWF115/07 H6N4 (Influenza A virus A/northern shoveler/California/HKWF115/2007(H6N1)). Description: microarray, transfection SN IgG, trimeric HA.
Assay [14] addresses recombinant soluble homotrimeric HA, A/Hong Kong/156/97 H5N1 (Influenza A virus A/Hong Kong/156/97 (H5N1)). Description: microarray, transfection SN IgG, trimeric HA.
The target in assay [15] is recombinant soluble homotrimeric HA, A/Wisconsin/67/05 H3N2 (Influenza A virus A/Wisconsin/67/2005(H3N2)). Description: microarray, transfection SN IgG, trimeric HA.
For assay [16], the target named is recombinant soluble homotrimeric HA, A/Vietnam/1203/04 H5N1 (Influenza A virus A/VietNam/1203/2004(H5N1)). Kind of assay: microarray, transfection SN IgG, trimeric HA.

B1: TCN-538 (3206_O17) (antibody, V domains shown)
VH: QITLKESGPTLVKPTQTLTLTCVFSGFSLSITGVRVGWIRQPPGKALEWLALISWDDEKHYSPSLQSRLTITKDTSKNQVVLTMTNLDPVDTATYYCARSTDRGHVLRYFGWMLPGDAFDVWGQGTMVTVSS
VL: DIVMTQSPDFLPVSLGERATINCKSSQRVLYSSNNKNYLAWYQLKPGQPPKLIIYWASTRESGVPDRFSGSGSGTEFTLTISSLQAEDVAVYYCQQYYSRPYTFGQGTKLEIK
Turning to B1, the Trimeric HA Binding: RLU in assay [1] was 23600 RLU.

B2: TCN-546 (5089_L08) (antibody, V domains shown)
VH: QVQLQQWGAGLLKPSETLSLTCGVYGGSLSDYYWSWIRQPPGKGLEWIGEINHSGGTNYNPSLKRRVTISVDTSKKQFSLKMNSVTAADTAVYYCARGTDPDTEVYCRAGNCAAFDFWGQGTLVTVSS
VL: EIVLTQSPGTLSLSPGERATLSCRASHFVIGRAVAWYQQKPGQAPRLLIYGASSRATGIPDRFSGSGSGTDFTLTISRLETEDFAVFYCQHYGSSPRYAFGQGTKLEIK
In the case of B2, the Trimeric HA Binding: RLU in [2] was 211 RLU.

B3: TCN-536 (5095_N01) (antibody, V domains shown)
VH: QVQLQQWGAGLLKPSETLSLTCAVYGGSFSVSGYYWSWIRQPPGRGLEWIGEISHGGSTNYNPSLKSRVTISVDTTKNQFSLRLSSVTAADTAVYYCARGTDPDTEVYCRVGNCAAFDYWGQGSLVTVSS
VL: EIILAQSPGTLSLSPGERATLSCRASQFVSTRSLAWYQQRPGQAPRLLIYGASSRATGIPDRFSGSGSGTDFTLTISRLEPEDFAVYYCQHYGYSPRYAFGQGSKVEIK
As for B3, the Trimeric HA Binding: RLU stood at 251 RLU in assay [2] and 126 RLU in assay [3].

B4: TCN-552 (5249_I23) (antibody, V domains shown)
VH: QVQVVQSGAEVKKPGSSVRVSCQASGGTFMNYAIIWVRRAPGQGLEWMGGIIPVFPTPNYAQMFQGRVTISTDESRSTSFLELTNLRYEDTAVYYCARRIYHGGNSGFDFWGQGTLVTVSS
VL: EIVLTQSPATLSLSPGERATLSCRASQSVGNYLAWYQQKPGQAPRLLIYDSSNRAPGIPARFSGSGSGTDFTLTISSLAPEDFAVYYCQQRSKWPPMYSFGHGTKLEIK
For B4, the Trimeric HA Binding: RLU worked out at 34500 RLU in assay [4]; 37400 RLU in assay [5]; 9010 RLU in assay [6]; 43400 RLU in assay [7]; 21200 RLU in [8]; 23500 RLU in assay [9]. For the same molecule, the Trimeric HA Binding: RLU in [10] amounted to 48600 RLU; in assay [11], 15900 RLU; in assay [12], 52000 RLU; in assay [13], 43900 RLU; in [14] it was 36300 RLU; in assay [15], 18500 RLU. Moreover, the values for the Trimeric HA Binding: RLU in assay [16] and in assay [1] were 18500 RLU and 40000 RLU, respectively.

B5: TCN-553 (5261_C18) (antibody, V domains shown)
VH: QVQVVQSGTEVKKPGSSVKVSCQTSGGRFMSYAITWVRQAPGQGLEWMGGIVPVFGTANYAQKFQGRVTITTDDSTRTAYMELSSLRSEDTAVYYCGFRYGSGYGFDSWGQGTLVTVSS
VL: EIVLTQSPGTLSLSPGERATLSCRASQSVSSSYLAWYQKKPGQAPRLLIYGASTRATGIPDRFTGSGSGTDFTLSISRLEPEDFAVYYCQHFGTSVFTFGGGTKVEIK
For the molecule B5, the Trimeric HA Binding: RLU in assay [4] came out at 34700 RLU; in assay [5] it was 41300 RLU; in assay [6], 8550 RLU; in [7], 31200 RLU; in assay [8], 19500 RLU; in assay [9] it was 23300 RLU. Also, the Trimeric HA Binding: RLU turned out to be 49600 RLU in assay [10]; 12500 RLU in assay [11]; 39800 RLU in assay [12]; 32500 RLU in assay [13]; 36300 RLU in [14]; 25200 RLU in [15]. In addition, the results for the Trimeric HA Binding: RLU in assay [16] and in assay [1] were 19200 RLU and 18800 RLU, respectively.

B6: TCN-539 (5056_A08) (antibody, V domains shown)
VH: QVQLVESGGGVVQPGRSLRLSCAASEITFITYAMHWVRQAPGKGLEWVALISDDGSNKFYADSVKGRFTISRDNSKNTLYLQMNSLRAEDTAAYYCAREGVYFDSGTYRGYFDYWGQETLVTVSS
VL: EIVLTQSPATLSLSPGERATLSCRASQSVSSYLAWYQQKPGQAPRLLIYDASNRATGIPARFSGSGSGTDFTLTISSLEPEDFAVYYCQQRSHWPPITFGQGTRLEIK
Regarding B6, the Trimeric HA Binding: RLU came out at 124 RLU in assay [2] and 11400 RLU in [1].

B7: TCN-534 (5249_B02) (antibody, V domains shown)
VH: QVQLVQSGAEVKKPGSSVKVSCRESGGTFNGYTITWVRQAPGQGLEWMGGIIPMMGTVNYAQKLQGRVTITTDYFTKTAYMDLNNLRSEDTAMYYCVKIRYTGQQLLWGQGTLVTVSS
VL: DIQMTQSPSTLSASIGDRVTITCRASQSIASWLAWYQQKPGKAPKLLIYEAVNLESGVPSRFSGSGSGTDFTLTISSLQPDDFATYFCQHYGTISQTFGGGTKVEIK
For B7, the Trimeric HA Binding: RLU in [1] came out at 41400 RLU.

B8: TCN-535 (5246_P19) (antibody, V domains shown)
VH: QVQLVQSGSEVKKPGTSVKVSCTASGSVFTNYGISWVRQAPGQGLEWMGGIIPLFGAAKYAQKFQGRVTITADESTKTVYMELSRLTSKDTAIYFCAKAPRVYEYYFDQWGQGTPVTVSS
VL: EIVLTQSPGTLSLSPGERATLSCRASQSVSSSQLAWYQQKPGQAPRLIIYGASTRATGIPDRFSGSGSGTDFTLTIGRLEPEDFAVFFCQQYSTSPPTFGQGTKVDFK
Consider B8, for which the Trimeric HA Binding: RLU in assay [1] amounted to 39400 RLU.

B9: TCN-550 (5096_F06) (antibody, V domains shown)
VH: QVQLQESGPGLVKPSETLSLTCTVSGASINSHYWSWIRQPPGKGLEWIGYVYYSGSTTYNPSLKSRVTLSVDTSKNQFSLNLSSVTAADTAFYYCARHPYDVLTGSGDWFDPWGQGTLVTVSS
VL: SYVLTQAPSVSVAPGQTARITCGGNAIGSKKVHWYQHKAGQAPVLVVYDDTDRPSGIPERFSGSNSWSTATLTINRVEAGDEADYYCQVWDFTIDHVVFGGGTKLTVL
As for B9, the Trimeric HA Binding: RLU worked out at 256 RLU in assay [2]; 1800 RLU in [4]; 1010 RLU in assay [5]; 7680 RLU in [6]; 9000 RLU in [7]; 26800 RLU in [8]. For the same molecule, the Trimeric HA Binding: RLU in assay [9] came to 628 RLU; in [10] it was 758 RLU; in [11], 4710 RLU; in [12] it was 731 RLU; in [13], 2300 RLU; in assay [14] it was 955 RLU. For the same molecule, the values for the Trimeric HA Binding: RLU in assay [15] and in assay [16] were 37800 RLU and 41900 RLU, respectively.

B10: TCN-540 (5060_F05) (antibody, V domains shown)
VH: QVQLVQSGGGVVQPGRSLRLSCAASGFTFSSYAMHWVRQAPGKGLEWVAIISYDGNDQYYTDSVKGRFTISRDSSKVYLQMHRLRPEDTAVYYCAKEFETSGYFHGSFDYWGQGILVTVSS
VL: QSALTQPASVSGSPGQSITISCTGTSSDVGGYNYVSWYQQHPGKAPKLLIYEVTNWPSGVSNRFSGSKSGNTASLTISGLQAEDEADYYCSSYAGSSTWVFGGGTRVTVL
In the case of B10, the Trimeric HA Binding: RLU was 318 RLU in assay [2], 138 RLU in assay [3] and 1970 RLU in assay [1].

B11: TCN-543 (5081_G23) (antibody, V domains shown)
VH: QVHLVQSGAEVRKPGDSVKVSCKTSGYTFSTYPVAWVRQVPGQGLEWMGWISTYNGNTNFAQNFQGRVTLTTDTTTNTAYMEVRSLKFDDTAVYYCARVEGSYRDFWNNQNRFDPWGQGTLVTVSS
VL: SYVLTQPPSVSVAPGQTARISCGGSNIGGKSVHWYQQKPGQAPVLVVYDDSGRPSGIPERFSGSNSGDTATLTISRVEAGDEADYFCQVWDNFGGVFGTGTKVTVL
With B11, the Trimeric HA Binding: RLU in assay [2] came to 119 RLU; in assay [3], 169 RLU.
